Assay results: US7740850B2, “PDGFRβ-specific antibodies” (ImClone, LLC, priority 2007, dated 2010)

Tests used:
β1-2 = molecular target: T1, β1-2 (Homo sapiens, UniProt P09619); assay: Epitope mapping, shorter version of PDGFRβ (D1D2); type: binding; settings: ✓ / X, key not given
T1 construct: Shorter versions of PDGFRβ, including D1D2, D2D3 and D1D2D3, were then made; made in house
Procedure: (§1) 2C5 binds to domain 1 (D1) and domain 2 (D2) of PDGFRβ. Various chimeric constructs of PDGFRβ and PDGFRα were first made by domain swapping, starting from N-terminus to C-terminus with PDGFRβ domain(s) replacing PDGFRα domain(s). The PDGFRβ/α chimera were tested for the ability of 2C5 binding. Shorter versions of PDGFRβ, including D1D2, D2D3 and D1D2D3, were then made to confirm the 2C5 binding domains on PDGFRβ.

PDGFRβ = assay: Epitope mapping, binding domains; settings: chimeric and shorter PDGFRβ constructs
Procedure: as §1

OVCAR8 cells = assay: PDGF-BB-stimulated cell migration, two-chamber technique; type: cell-based, human; settings: antibody 30 μg/ml, PDGF-BB 100 ng/ml, 4 hours
Procedure: (§2) 2C5 inhibits PDGF-BB-stimulated cell migration in a cell-based migration assay. Two-chamber technique was used to determine the inhibitory ability of 2C5 in cell migration with NCI-H460, OVCAR8, WS-1 and U-118 cell lines. Collagen (100 μg/ml) was added to the up chamber (100 μl) and the lower chamber (150 μl) and incubated at 37° C. for 1 hour. After washing the chambers twice with PBS, 100 μl of starved cells (estimated 0.5-10×10^6/ml in serum-free medium) were added to the up chamber and 150 μl of serum-free medium was added to the lower chamber and then incubated at 37° C. for 4 hours. […] In 2C5 wells, 2C5 were added into the up chamber at a final concentration of 30 μg/ml. Non-migrated cells in the up chamber were scraped from the membrane. After washing three times with PBS, migrated cells on the membrane of the lower chamber side were fixed with 4% formalin and stained with Hoechst (4 μg/ml). The results were captured and cells were counted under fluorescence microscopy.

NCI-H460 cells = assay: as above; type: cell-based, human; settings: antibody 30 μg/ml, PDGF-BB 100 ng/ml, 4 hours
Procedure: as §2

[1] = test system: OV-CAR-8 ovarian carcinoma xenograft; assay: Subcutaneous tumor xenograft model; type: in vivo, mouse; settings: for Tumor Volume T/C %: OVCAR-8 xenograft, monotherapy
Procedure: (§3) Six xenograft models, SK-OV-3, OV-CAR-8, BxPC-3, OV-CAR-5, Caki-1 and NCI-H460 (A to F, respectively) were used to examine the effects of 1B3 on xenograft tumors in athymic nude mice. Mice with established tumors (˜250-300 mm^3) were randomly grouped and treated with 1B3, normal human IgG, or saline by intraperitoneal injection twice weekly (except for BxPC-3 model where the mice were treated three times a week) at the dose indicated. Tumor volumes were measured twice a week and are presented as mean±SEM. *1 indicates the loss of one mouse due to severe illness. 1B3 binds to mouse, but not human, PDGFRβ. Accordingly, the observed responses to treatment result from inhibition of stimulation of host cells.
(§4) Antitumor activity of anti-mPDGFRβ antibody in tumor xenograft models. Six human xenograft tumor models, including three ovarian carcinoma (SK-OV-3, OV-CAR-5 and OV-CAR-8), one pancreatic carcinoma (BxPC3), one lung carcinoma (NCI-H460), and one kidney carcinoma (Caki-1), were used to assess the antitumor activity of 1B3 in vivo. Athymic (nu/nu) mice (female, 7-8 weeks of age) were housed for 7-10 days before xenograft implantation. Each mouse was injected subcutaneously with 3-10×10^6 cells of SK-OV-3, OVCAR-5, OVCAR-8, Caki-1, BxPC3 or NCI-H460 tumor cells. When tumors reached approximately 250-300 mm^3, mice were randomized into groups of 10 to 12 animals each and treated by intraperitoneal injection, 2 to 3 times per week, with 1B3, DC101, or 1B3 in combination with DC101. Human IgG and/or USP saline were used as control groups. Tumor sizes and mouse body weight were measured twice a week. Tumor volume was calculated using the formula: π/6×(length×width^2), where length=longest diameter and width=diameter perpendicular to length. The ratio of average tumor volume in the treatment group versus that in the control group (T/C %) was calculated. Statistic analysis was performed by Student's t-test.
(§5) To study the antitumor effects of monotherapy with an anti-PDGFRβ antibody, mice were treated with 1B3, normal human IgG, or saline twice weekly by intraperitoneal injections. In SK-OV-3 model, tumor-bearing mice were given 1B3 at 6, 20, or 60 mg/kg dose.
(§6) Antitumor activity of anti-PDGFRβ antibody in tumor xenograft models. The five human xenograft tumor models described above (OVCAR-5 and OVCAR-8, BxPC3, NCI-H460, and Caki-1) were used to assess the antitumor activity of 2C5 in vivo. 2C5 which binds to and inhibits human PDGFRβ receptors of the tumor and mouse receptors of the vasculature was compared to 1B3 which bound only to mouse vasculature. […] (FIG. 9; Table 2).

[2] = test system: OV-CAR-5 ovarian carcinoma xenograft; assay: Subcutaneous tumor xenograft model; type: in vivo, mouse; settings: for Tumor Volume T/C %: OVCAR-5 xenograft, monotherapy
Procedure: as §3, §4, §5, §6

β1-3 = assay: Epitope mapping, shorter version of PDGFRβ (D1D2D3); type: binding; settings: ✓ / X, key not given
Procedure: as §1

U-118 cells = assay: PDGF-BB-stimulated cell migration, two-chamber technique; type: cell-based; settings: antibody 30 μg/ml, PDGF-BB 100 ng/ml, 4 hours
Procedure: as §2

WS-1 cells = assay: as above; type: cell-based; settings: antibody 30 μg/ml, PDGF-BB 100 ng/ml, 4 hours
Procedure: as §2

human xenograft tumors = assay: Human tumor xenograft models in athymic nude mice (statements over several models); type: in vivo; settings: all six xenograft models, i.p. up to 60 mg/kg
Procedure: as §4
The xenograft cell lines were BxPC-3, MIA-PaCa-2, Detroit-562, HCT-8, NCI-H460, NCI-H292, and HCT-116. […] (FIG. 10 and Table 3). […]

mouse PDGFRα = mouse PDGFRα (Mus musculus, UniProt P26618); assay: Binding to PDGFRα; settings: data not shown
mouse PDGFRα, sequence (P26618 25-1089): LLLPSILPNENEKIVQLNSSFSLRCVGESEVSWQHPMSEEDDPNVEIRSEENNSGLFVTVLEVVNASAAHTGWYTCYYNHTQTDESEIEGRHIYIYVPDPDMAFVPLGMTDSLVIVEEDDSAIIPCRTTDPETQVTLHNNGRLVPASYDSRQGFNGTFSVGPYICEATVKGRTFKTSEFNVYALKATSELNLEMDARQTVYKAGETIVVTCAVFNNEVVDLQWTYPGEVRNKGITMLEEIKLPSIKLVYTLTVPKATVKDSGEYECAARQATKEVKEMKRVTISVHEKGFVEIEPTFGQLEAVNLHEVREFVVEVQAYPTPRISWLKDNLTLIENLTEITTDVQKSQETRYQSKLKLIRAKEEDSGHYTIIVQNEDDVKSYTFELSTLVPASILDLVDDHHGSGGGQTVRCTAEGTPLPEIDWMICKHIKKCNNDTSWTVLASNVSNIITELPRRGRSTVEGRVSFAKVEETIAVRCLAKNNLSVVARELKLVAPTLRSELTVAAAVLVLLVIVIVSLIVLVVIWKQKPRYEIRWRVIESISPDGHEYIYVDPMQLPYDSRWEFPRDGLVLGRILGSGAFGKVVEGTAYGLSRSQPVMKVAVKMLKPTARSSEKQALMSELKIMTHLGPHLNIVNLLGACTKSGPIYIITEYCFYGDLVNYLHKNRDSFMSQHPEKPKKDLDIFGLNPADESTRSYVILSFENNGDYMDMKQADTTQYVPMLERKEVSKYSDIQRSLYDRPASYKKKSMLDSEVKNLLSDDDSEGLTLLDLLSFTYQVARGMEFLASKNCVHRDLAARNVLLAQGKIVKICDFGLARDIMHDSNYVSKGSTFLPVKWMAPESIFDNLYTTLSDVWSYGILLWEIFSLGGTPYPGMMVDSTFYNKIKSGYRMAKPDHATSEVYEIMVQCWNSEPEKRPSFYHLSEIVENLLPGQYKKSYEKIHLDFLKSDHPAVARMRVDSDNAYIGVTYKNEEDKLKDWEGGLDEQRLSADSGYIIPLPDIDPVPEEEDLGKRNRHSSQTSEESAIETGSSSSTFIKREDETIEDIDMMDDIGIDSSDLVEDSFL

T1 sequence (P09619 33-210): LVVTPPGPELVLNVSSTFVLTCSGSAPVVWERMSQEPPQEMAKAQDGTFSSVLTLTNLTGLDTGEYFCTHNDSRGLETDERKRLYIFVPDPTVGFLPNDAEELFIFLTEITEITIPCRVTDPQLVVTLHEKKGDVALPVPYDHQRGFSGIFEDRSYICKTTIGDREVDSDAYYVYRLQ

B1: 2C5: PDGFRβ-specific human antibody binding both human and murine PDGFRβ; SEQ ID NOS in Table 1 (antibody, listed as Homo sapiens, V domains shown)
VH: QVQLVQSGAEVKKPGSSVKVSCKASGGTFSSYAISWVRQAPGQGLEWMGRIIPILGIANYAQKFQGRVTITADKSTSTAYMELSSLRSEDTAVYYCARDMGSRNYYYFYWGQGTLVTVSS
VL: EIVLTQSPATLSLSPGERATLSCRASQSVGRYLAWYQQKPGQAPRLLIYGASNRATGIPARFSGSGSGTDFTLTISSLEPEDFAVYYCQQRSNWPLTFGGGTKVEIK
binding to β1-2 (β1-2): ✓ | binding domains on PDGFRβ (PDGFRβ): binds to PDGFRβ via both D1 and D2 of the receptor | inhibition of PDGF-BB-stimulated cell migration (OVCAR8 cells): inhibited PDGF-BB-stimulated cell migration completely | inhibition of PDGF-BB-stimulated cell migration (NCI-H460 cells): inhibited PDGF-BB-stimulated cell migration completely | Tumor Volume T/C % [1]: 39% | Tumor Volume T/C % [2]: 84% | binding to β1-3 (β1-3): ✓ | inhibition of PDGF-BB-stimulated cell migration (U-118 cells): inhibited PDGF-BB-stimulated cell migration completely | inhibition of PDGF-BB-stimulated cell migration (WS-1 cells): inhibited PDGF-BB-stimulated cell migration completely

B2: 1B3: human anti-mouse PDGFRβ antibody from Fab phage display library, human κ/γ1 constant regions; SEQ ID NOS in Table 1 (antibody, listed as Homo sapiens, V domains shown)
VH: QVQLQESGGGLVKPGGSLRLSCAASGFTFSSYSMNWVRQAPGKGLEWVSSISSSSSYIYYADSVKGRFTISRDNSKNTLYLQMNSLRAEDTAVYYCAKGGRPLLVFDFWGQGTLVTVS
VL: EIVMTQSPGTLSLSPGERATLSCRASQSVSSSYLAWYQQKPGQAPRLLIYDASKRATGIPARFSGSGSGTDFTLTISTLESEDSAVYYCQQRGYWPPITFGQGTRLEIKR
modifications: human kappa/gamma1 constant regions
tumor growth inhibition ([1]; OV-CAR-8, 60 mg/kg i.p. twice weekly): almost completely blocked the growth | Tumor Volume T/C % [1]: 43% | antitumor activity ([2]; OV-CAR-5, 40 mg/kg three times per week or 60 mg/kg twice weekly): failed to show any antitumor activity | Tumor Volume T/C % [2]: 92% | overt toxicity, including changes in body weight and animal behavior (human xenograft tumors): did not cause any overt toxicity | binding to mouse PDGFRα (mouse PDGFRα): did not bind
